Assay results reported in PMC4887326 (2016).

What was measured:
[1] = target: YfiB^L43P/F57A (residues 34–168) (P. aeruginosa, UniProt Q9I4L6 34-168, L43P | F57A); assay: ITC
[2] = target: YfiB^L43P (residues 34–168), purified alone (P. aeruginosa, UniProt Q9I4L6 34-168, L43P); assay: ITC

B1: YfiR (residues 35–190), purified alone (domain or fragment)
chain: DDARTSIEQRSNAVSQVLLGIFSYVRWPKEPAVLQLCVVGPTEYADGLLRGMVQANGRRVHAERRAVDNPDLGTLCNVIYLGVVDERERQQVFRSLAGHPVLSISERGTECSVGSMFCLNVGGPRITFEANLDSIARSGVRVHPSVLKLARRQATP
- Ka [1]: 1.87e+06 M⁻¹
- Ka [2]: 7.12e+06 M⁻¹
